In US9803013B2, “Biological materials and uses thereof” (BioInvent International AB, priority 2005, dated 2017):

Tests used:
A549 = assay: IgG binding to carcinoma cell line, flow cytometry MFI; design: species or system human; conditions: A549, Lung carcinoma
Source text: (§1) The antigen distribution of human antibody targeted antigens, mainly for B11, on different carcinoma cell lines was investigated. Cells (MCF-7 and MDA MB 435S breast carcinoma, JAR and JEG-3 chorio-carcinoma, A549 lung carcinoma, TCC-SUP urinary bladder carcinoma, MDA MB 435 melanoma, HPAC, PANC-1 and BxPC-3 pancreatic carcinoma, PC-3 and DU145 prostate carcinoma, LS174 T, CaCo2, and Lovo colorectal carcinoma, and THP-1 monocytic leukaemia cells), were washed in PBS, and resuspended at 4×10^6 cells/ml in Complete Medium (200,000 cells/50 […] sample). […] Cells were incubated with either of the antibodies for 1 hour on ice, washed by resuspension in PBS/BSA 0.5%, centrifuged at 1200 rpm for 5 min, and complete aspiration of the supernatants was undertaken. Cells were incubated with PE-conjugated Goat F(ab′)2 anti-Human IgG (Caltag Laboratories, Cat no: H10104), diluted 1/50 in PBS/BSA 0.5%, for 30 min, on ice. Following resuspension of in 300 μl PBS/BSA 0.5%, cells were analysed for IgG binding using a FACScan instrument.

BxPC-3 = assay: as above; design: species or system human; conditions: BxPC-3, Pancreatic carcinoma
Source text: as §1

CaCo2 = assay: as above; design: species or system human; conditions: CaCo2, Colon carcinoma
Source text: as §1

DU145 = assay: as above; design: species or system human; conditions: DU145, Prostate carcinoma
Source text: as §1

JAR = assay: as above; design: species or system human; conditions: Chorio-carcinoma
Source text: as §1

JEG-3 = assay: as above; design: species or system human; conditions: JEG-3, Chorio-carcinoma
Source text: as §1

Lovo = assay: as above; design: species or system human; conditions: Colon carcinoma
Source text: as §1

MDA MB 435S = assay: as above; design: species or system human; conditions: Mammary carcinoma
Source text: as §1

PANC-1 = assay: as above; design: species or system human; conditions: PANC-1, Pancreatic carcinoma
Source text: as §1

PC-3 = assay: as above; design: species or system human
Source text: as §1

TCC-SUP = assay: as above; design: species or system human; conditions: Urinary bladder carcinoma
Source text: as §1

CL-01 B lymphoma cells = assay: Mitochondrial membrane depolarisation assay (JC-1); assay type: cell-based, human; conditions: CL-01, JC-1 staining, 2 μg/ml IgG cross-linked, 6 h
Protocol: FIG. 4A. […] Cells were incubated at 37° C. for 6 h and the effect of the antibody incubation was determined by two independent apoptosis assays. Cells were stained either by AV/PI (upper panel), similarly as described above, or by incubation with 5 μg/ml of the mitochondrial membrane depolarisation reagent JC-1 for 30 min at RT (lower panel). Induction of apoptosis is detectable by a decrease in the red (y-axis)/green (x-axis) fluorescence intensity ratio. (FIG. 4B) Histology section showing representative binding of B11 antibody to B lymphoma tissue. Cryo-preserved tissue obtained from a patient with Anaplastic Large Cell B Lymphoma was stained with B11 or FITC-8 (control) scFv antibody. Antibody binding was detected with DAB (brown colour). […] IgG B11 binding to the different cell populations was recorded in the FL4 channel.
Mitochondrial membrane depolarisation was analysed as previously described (Kim et al., Mol. Biol. Cell (2004) 15:420-434). […] Cells were washed twice in ice-cold PBS and resuspended in […] PBS and analysed on a FACS Aria (BD Biosciences). The green and red fluorescence was collected through 494/518 nm (FL-1) and 595/615 nm (FL-2) bandpass filters, respectively. […]

ICAM-3 = molecular target: T1, ICAM-3 (Homo sapiens, UniProt P32942); assay: Binding to recombinant ICAM family protein
T1 sequence (P32942 30-547): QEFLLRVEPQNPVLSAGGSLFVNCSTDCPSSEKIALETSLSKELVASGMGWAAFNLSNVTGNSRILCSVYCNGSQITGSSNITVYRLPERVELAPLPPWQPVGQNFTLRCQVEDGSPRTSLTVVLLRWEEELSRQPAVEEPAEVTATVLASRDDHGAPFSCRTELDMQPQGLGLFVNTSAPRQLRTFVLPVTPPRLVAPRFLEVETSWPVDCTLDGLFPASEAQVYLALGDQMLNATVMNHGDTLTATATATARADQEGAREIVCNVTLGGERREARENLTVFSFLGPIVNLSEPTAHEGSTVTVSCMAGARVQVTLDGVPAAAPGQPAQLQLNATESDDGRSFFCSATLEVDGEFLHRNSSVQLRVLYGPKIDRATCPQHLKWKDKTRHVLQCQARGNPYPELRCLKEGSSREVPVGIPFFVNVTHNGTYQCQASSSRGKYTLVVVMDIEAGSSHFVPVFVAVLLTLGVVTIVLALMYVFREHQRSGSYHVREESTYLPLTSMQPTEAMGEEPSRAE

ARH-77 tumors = assay: SCID/ARH-77 subcutaneous xenograft model
Protocol: For subcutaneous grafting, 1-5×10^6 tumor cells (RPMI-8226, NCI-H929, EJM, OPM-2, ARH-77, or Daudi) were subcutaneously injected at a volume of 100 μl into the left flank of anesthetized mice as described in the Supplemental Information. […] Treatment with saline, isotype control IgG, bortezomib, lenalidomide, dexamethasone, or BI-505 started on day 5 (RPMI-8226). Treatment with melphalan started on day 10. BI-505 or isotype IgG mAb was administered i.v. at 2 mg/kg/inj twice weekly for 8 weeks; bortezomib at 1 mg/kg/inj once weekly for 8 weeks; lenalidomide orally at 2 mg/kg/inj for 2 cycles consisting of 5 days of treatment and 2 days of wash out; melphalan i.v. at 3 mg/kg/inj once weekly for 8 weeks; and dexamethasone at 6 mg/kg/inj three times weekly for 2 weeks.
Mice were anaesthetized with a mixture of sevofluran and oxygen prior to myeloma cell inoculation and 1-10×10^6 myeloma cells were then subcutaneously injected in a volume of 100 μl into the left flank. Treatment with antibodies by intraperitoneal injection started either 1 day after cell inoculation (prophylactic model) or when tumors reached approximately 100 mm^3 (established model). Antibodies were administered in 200 μL of PBS. Treatment with PBS only or isotype IgG were used as controls. Macrophages or NK-cells were depleted by i.p. administration of 0.1 ml clodronate liposomes (Clophosome-A, FormuMax, Scientific Inc. Palo Alto, USA) or 20 μl anti-asialo GM1 pCI Ab (CL8955, Cedarlane Laboratories Limited, Canada) respectively, starting one day prior to antibody treatment, followed by administration twice weekly for a total of three weeks, PBS was used as control.
Tumor size was measured using a digital calliper and tumor volumes were calculated according to the formula width^2×length×0.52, as previously described (Cao et al., 1999).
Statistical analyses of tumor growth inhibition relative to control antibody treatment were carried out using Kruskal-Wallis nonparametric ANOVA with Dunn's multiple comparisons test or Mann-Whitney non-parametric analysis, as indicated in the figure legends.

[1] = tumors established for 12 days before start of antibody treatment

B1: B11: fully human IgG1 antibody specific for ICAM-1; VH and VL sequences of FIG. 10 (SEQ ID NOs. 6 and 8) (antibody, listed as Homo sapiens, V domains shown)
VH: EVQLLESGGGLVQPGGSLRLSCAASGFTFSNAWMSWVRQAPGKGLEWVAFIWYDGSNKYYADSVKGRFTISRDNSKNTLYLQMNSLRAEDTAVYYCARYSGWYFDYWGQGTLVTVSS
VL: QSVLTQPPSASGTPGQRVTISCTGSSSNIGAGYDVHWYQQLPGTAPKLLIYDNNNRPSGVPDRFSGSKSGTSASLAISGLRSEDEADYYCQSYDSSLSAWLFGGGTKLTVLG
**Q.** How did the MFI (A549) turn out when B1 was run?
**A.** The MFI was 800.

**Q.** And the MFI (BxPC-3)?
**A.** Its MFI is 2000.

**Q.** And the MFI (CaCo2)?
**A.** The MFI was 800.

**Q.** And the MFI (DU145)?
**A.** Its MFI is 2200.

**Q.** What about the MFI (JAR) of the same molecule?
**A.** Its MFI is 2000.

**Q.** What about the MFI (JEG-3) of the same molecule?
**A.** Its MFI is 1600.

**Q.** What about the MFI (Lovo) of the same molecule?
**A.** Its MFI is 1600.

**Q.** And the MFI (MDA MB 435S)?
**A.** Its MFI is 800.

**Q.** What about the MFI (PANC-1) of the same molecule?
**A.** The MFI was 3800.

**Q.** And the MFI (PC-3; PC-3, Prostate carcinoma)?
**A.** Its MFI is 1500.

**Q.** What about the “binding” value (PC-3; PC-3 prostate carcinoma cells) of the same molecule?
**A.** Its value is “strong binding”.

**Q.** What about the MFI (TCC-SUP) of the same molecule?
**A.** Its MFI is 3200.

**Q.** And the “mitochondrial membrane depolarisation” value (CL-01 B lymphoma cells)?
**A.** Its value is “induce mitochondrial membrane depolarisation”.

**Q.** What about the “binding to recombinant protein” value (ICAM-3) of the same molecule?
**A.** The value was “not to ICAM-2 or ICAM-3”.

**Q.** What about the “antitumor activity” value (ARH-77 tumors; dose-titration, dose of 0.2 mg/kg) of the same molecule?
**A.** Its value is “near maximal”.

**Q.** What about the “in vivo antitumor activity of Fc-variants, order” value (ARH-77 tumors; established ARH-77 tumors) of the same molecule?
**A.** Its value is “IgG1 N297Q<IgG4<IgG1”.

**Q.** What about the “tumor macrophage infiltration” value (ARH-77 tumors; established ARH-77 tumors, F4/80+ immunohistochemistry) of the same molecule?
**A.** Its value is “significantly increased tumor macrophage infiltration”.

**Q.** What about the “tumor NK cell content” value (ARH-77 tumors; established ARH-77 tumors, immunohistochemistry) of the same molecule?
**A.** The value was “decreased tumor NK cell content”.

**Q.** And the “survival” value (ARH-77 tumors; prophylactic, 0.2 mg/kg, compared to 20 mg/kg rituximab)?
**A.** The value was “equally efficacious”.

**Q.** And the “injected mice in which tumor growth was prevented” value (ARH-77 tumors; prophylactic, 20 mg/kg twice-weekly from 1 day after tumor cell inoculation)?
**A.** The value was 9 out of 10.

**Q.** What about the “animal survival” value (ARH-77 tumors; [1]) of the same molecule?
**A.** Its value is “prolonged animal survival”.

**Q.** And the “tumor growth” value (ARH-77 tumors; [1])?
**A.** The value was “significantly reduced tumor growth”.
